Assays:
human CCR5 [1] = biological target: T1, human CCR5 (human, UniProt P51681 1-352); assay: cell-based or functional assay
human CCR5 [2] = biological target: T1, human CCR5; assay: cell-based or functional assay; remark: listed apart in the source
human CCR5 [3] = biological target: T1, human CCR5; assay: epitope mapping with alanine mutants of CCR5
human CCR5 [4] = biological target: T1, human CCR5; assay: cell ELISA on CCR5-expressing cells, hybridoma screening

T1 sequence (P51681 whole entry): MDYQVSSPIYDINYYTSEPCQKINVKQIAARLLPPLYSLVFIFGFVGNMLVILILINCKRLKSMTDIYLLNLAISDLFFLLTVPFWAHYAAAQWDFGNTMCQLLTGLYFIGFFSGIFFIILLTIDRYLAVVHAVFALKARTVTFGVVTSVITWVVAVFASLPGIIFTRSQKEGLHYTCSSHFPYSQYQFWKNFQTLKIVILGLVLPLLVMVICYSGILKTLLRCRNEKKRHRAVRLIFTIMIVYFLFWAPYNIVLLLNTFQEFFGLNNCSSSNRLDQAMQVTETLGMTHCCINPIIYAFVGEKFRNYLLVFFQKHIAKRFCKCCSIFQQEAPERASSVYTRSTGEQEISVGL

Binder | IC50, PhenoSenseHIV assay (ViroLogic) using JRCSF strain (human CCR5 [1]) [µg/ml] | IC50, cell-cell fusion assay (gp160-expressing HeLa cells with CEM.NKR-CCR5-Luc cells, luciferase) (human CCR5 [1]) [µg/mL] | IC50, inhibition of HIV growth in human PBMC, JRCSF (p24 ELISA) (human CCR5 [2]) [µg/mL] | IC50, inhibition of HIV growth in human PBMC, Nl-Bal (p24 ELISA) (human CCR5 [2]) [µg/mL] | binding result (human CCR5 [3]) | binding result (human CCR5 [4])
<CCR5>Pz03.1C5 (antibody, V domains shown, also called Antibody C; m<CCR5>Pz03.1C5) VH: QVQLKQSGPGLVRPSQSLSITCTVSGFPLGIFGVHWVRQSPGKGLEWLGVIWKGGNTDYNAAFMSRLRITKDNSKSQVFFRMNSLQTDDTAIYYCAKVNLADAMDYWGQGTSVIVSS VL: DIQMTQSPASLSASVGETVTITCRASGNIHGYLAWFQQKQGKSPQLLVYNTKTLAEGVPSRFSGSGSGTQFSLKINSLQPEDFGNYYCQHHYDLPRTFGGGTKLEIKR | 0.16 | 0.38 | 0.013 | 0.029 | binds | –
<CCR5>Pz02.1C11 (antibody, V domains shown, also called Antibody B) VH: QVQLKQSGPGLVRPSQSLSITCTVSGFPLGVFGVHWVRQSPGKGLEWLGVIWKGGNTDYNAAFMSRLRISKDNSKSQVFFRMNSLQTDDTAIYYCAKVNLADAMDYWGQGTSVIVSS VL: DIQMTQSPASLSASVGETVTITCRSSGNIHGYLAWFQQKQGKSPQLLVYNTKALAEGVPSRFSGSGSGTQFSLKINNLQPEDFGIYYCQHHYDLPRTFGGGTKLEIKR | 0.17 | 0.79 | 0.025 | 0.025 | – | binds

Source: patent US20070036796A1 (ROCHE PALO ALTO, published 2007)
